Laboratory results: a protein production outcome set (Wang et al. 2014)

Test: label from the status in PepcDB records

Sequence	protein production
MTSAREAFDLYRAGRTAEAAALCERLVAAAPSVEAWHLLGVARLELGAAQAALTALDAGLALDPVRPGLLSARTLALTSLHRDDEAVVAARAALAVDPDNPPVFNALAVSLQRLGGFSEALAAIDHAVAAAPREAAYRAHRAALLVLLNRPAEAARDLEAVLEVNPSHPRVAGDLMWARRQTCDWREDAALDMLVKADLKLGRAGVAPFAALALFDLPVLHRRCATLSAPPSVPAPVWPVRRPGERLRVAYLSSDLHEHATARLLAGVLEAHDRSRFEIFAVSYGPETGGAMQERLRAACEHWIEARRLSDAEIALKCRQQGVDIAVDLKGYTQDGRPGILAHRAAPLQVSWLGYPGTLGAHADVVLADAVTLPPGAETNWSEAVVRLPCYQPNDGLTSVIPAPSRADMGLPERVRVFCCFNNPAKITPEVFATWMAILRAAPDSVLWLYAGAPGAADNLRGHARAAGVAPERLVFAEPAPHEAHLARHVLADLVLDTWPYGAHTTASDALRMGVPVLTLPGESFASRVGASLATAIGMTELIATSRADYVAKALAMAADGALKPRVAEAVRRSNLFDPVAFARSLETVYAGLVRR	failed
MTSFDRPFEAARPDGENPSAHETLAEGGRLRPEATYTIPARQGRAIRMAQGEALMVINRDGSQIGDFWAFVEGDCGEYLSMEHLRPTLRRVSPRPGDVLVSNRRRPILTLLEDSSPGVHDTLVASCDVHRYAQLGHEGYHDNCTDNLRMALGALGLRPTTVPCPLNLWMNTPVVEGGAMEWRPPVSRRGDHVLFRAELDVVVVISCCPMDLLPINGEEAQPRALDVRLRPRPA	not failed
MTSFVGTRGRGNCGTAPGRSPSLQAHGKMGRRREPGVPEESCCSHDACCEKAAKPRVEEVATSGCADCCSAGVPVFDGLDPRYKRILWTVIAINAAMFVSEMVAGHLAGSQALKADALDFLADTVTYGLSLSVIGASLKTRATAALFKGVSLSAMAAWVFGSTVYQTLILGLPRAELMGAMSLAALAANLTSVLLLARYKDGDANVRSVWLCSRNDAVGNVIVMIAAVGVFGTGTAWPDLAVAAVMAGIFLTSSLQILRQAWAEYRGGQAAATA	failed
MTSGIDLQNSFLQSLQGFGLPPGLAKLFWIPLPSILMIIGATVGVLVVVWLERKISAAAQQRIGPEYAGPLGVLQPVADGIKLVFKEDVVPAKADPWLFTLGPVLVVLPVFLSYLIVPFGQNLVITDINVGIFLWIALSSIAPIGLLMSGYASNNKYSLLGGLRAAAQSISYEIPLSLAVLAIVMMSNSLSTIDIVDQQSGYGILGWNIWRQPVGFLIFWIAALAECERLPFDLPEAEEELVAGYQTEYAGMKFALFYLGSYVNLVLSALVFSVLYLGGWDFPIPLENVANWLGVAPTTSWLQVLMAALGITMTVLKSYFLIFIAILLRWTVPRVRIDQLLNLGWKFLLPVALANLLITAALKLTFPMAFGG	failed
MTSLRRRCIRQVPNTLTVGRFALVPVAAGFIWTGDLRAAFWVFVAAGITDALDGWLARVLDARTALGATLDPLADKALLVATFFTLALTGAIPLWLLGLVALRDALILAGFAWLRLRAGRPIRVTPNILGKANTLAQILLCAAVIGASAFTLDLSAVIAVLTPVVAATTIISGIAYLRMWLRRGWDGQQAHDRIERTRRNNQQRDDR	failed
MTSPKHPPIRRDWLSKILAGTLLGFTLALGCSGLLVLALPQLPLPVKAQLAMWVVMPLWLGVLSGCFAFRDGRRAWLWLGGATALVLDLLVVARLS	failed
MTSPVQATPEPQPGLVARLSAEALGSMFVVVAAVGVGIFSNPGAAPLPAALATGLTVTAAMLAFGYVSGGHFNPAITLGNLIAGRIRAVAAVAYVAAQIIGSVVGAALMYFVVTTVPVLTDARAAFDVVAPGFGDHASAQTQMAGVLLVEVLGSALLVAVFLGATAGRRALPAMAPFAVGLAMAVLLQLGQVLGNLPFNPARATAQAFFSSPWAIEGLWLFWVAPLMGAALAGLAFRGFQGLSQAAVADTDHFHGGTDGINDAFDADDEPAEDSEVKEEAAAKADIAPSRAVPTVPVTDDARDFFDGKKGK	failed
MTSQGRAAMVRRMHDPQQPIRWRDLDLDPTHWVREILRVLGLALSRLWGRDVMLYVGGVSFFALLAVFPGLAILIGLYSLFLTPETAAWQAVKLAELIPSGARSIVQDELSRLAHAPGQTISLQSGVVLIVGAYAAHRGFKALLAGLSFIHDEENQRGFLGFNLMALLVLMAAFGLLFIMSGIFLTLRLLGTALELRPLAGVSWIQSEWTWASFGIVVGMSLVYRYAMSRQIVGWRASIAGGVAAAALCVFMSWASAFYVEKVVHLGATYGSVSAVIIFLIWLSWSVNAIFFGGALATEVEIALDERPRALLEGPRPIALKAPSESES	failed
MTSREDEIRDFLATHGYADWNRTPLAGDASSRRYQRLRSPTGAKAVLMDWSPEEGGDTQPFVDLAQYLRNLDISAPEIYAEEHARGLLLIEDLGDALFTEVINNDPAQEMPLYRAAVDLLIHLHDAQTPELARLDPETLSEMTRLAFSEYRYAILGDAAEDNRKRFEHRFAQILSAQLEGDMVFVHRDFHAQNLLWLPEREGLARVGVIDFQDAKLGHRAYDLVSLLQDARRDVPAQVEAQMIDHYIQATGVDESHFRSAYAVIAVQRNMRILGIFARLSQRFGKRHYIEFVPRVWAHFERGLAHPALASAAEEILNALPAPAPEVLERLRA	not failed
MTSRFMLIFAAISGFIFVALGAFGAHVLSKTMGGVEMGWIQTGLEYQAFHTLAILGLAVAMQRRISIWFYWSSVFLALGTVLFSGSLYCLALSHLRLWAFVTPVGGVSFLAGWALMLVGAIRLKRKGVSHE	failed
MTSSLQPDASRDAQREQVIAQLQQVIQRVPEQSEFTNTRRYQLLGPLFTLISLGMLAWGIQQGKTGMLLCGLFLSALFALVTWQHRHAGQHAFMRLTRRQLFVDSLSAPVNLTDVVDVHVKDEGLLTLQQLTLRPGSPLPTHRPVRQVFGNQAMALKSPEPHIRIHSAGLMSGGRKLAIDDIAALLDAYCQAANAQQQLDELQGRG	failed
MTSSPELARAVAATLARHVTDVVICPGSRNSPLSLELIARDDIRVHTRIDERSAAFLALGLARSSKRHVAVVTTSGTAVANCAPAMIEAAYSHTPLIMVSADRPERLHGTGANQTIEQRGIFNVVDTDHVVDITDLNSISFARNVIHINVALDVPLVDVLPEVGDPVERVREVIEV	failed
MTSSTETTATTPQVAVNDIGNEEAFLAAIDETIKYFNDGDIVDGVIVKVDRDEVLLDIGYKTEGVIPSRELSIKHDVDPNEVVAVGDEIEALVLQKEDKEGRLILSKKRAQYERAWGTIEKIKEEDGIVTGTVIEVVKGGLILDIGLRGFLPASLVEMRRVRDLQPYVGKELEAKIIELDKNRNNVVLSRRAWLEQTQSEVRQTFLTTLQKGQVRSGVVSSIVNFGAFVDLGGVDGLVHVSELSWKHIDHPSEVVEVGQEVTVEVLDVDMDRERVSLSLKATQEDPWQQFARTHQIGQVVPGKVTKLVPFGAFVRVDEGIEGLVHISELAERHVEIPEQVVQVNDEIFVKVIDIDLERRRISLSLKQANEAFGADPSTVEFDPTLYGMAASYDDQGNYIYPEGFDPETNDWLEGYETQREAWETQYAEAQTRFEQHQAQVIKSREADEKAAAEGVDTAGAAPAASGGGGGGSYSSEGGDNSGALASDEALAALREKLAGGQS	failed
MTSTFNPRECKLSKQEGQNYGFFLRIEKDTEGHLVRVVEKCSPAEKAGLQDGDRVLRINGVFVDKEEHMQVVDLVRKSGNSVTLLVLDGDSYEKAVKTRVDLKELGQSQKEQGLSDNILSPVMNGGVQTWTQPRLCYLVKEGGSYGFSLKTVQGKKGVYMTDITPQGVAMRAGVLADDHLIEVNGENVEDASHEEVVEKVKKSGSRVMFLLVDKETDKRHVEQKIQFKRETASLKLLPHQPRIVEMKKGSNGYGFYLRAGSEQKGQIIKDIDSGSPAEEAGLKNNDLVVAVNGESVETLDHDSVVEMIRKGGDQTSLLVVDKETDNMYRLAHFSPFLYYQSQELPNGSVKEAPAPTPTSLEVSSPPDTTEEVDHKPKLCRLAKGENGYGFHLNAIRGLPGSFIKEVQKGGPADLAGLEDEDVIIEVNGVNVLDEPYEKVVDRIQSSGKNVTLLVCGKKAYDYFQAKKIPIVSSLADPLDTPPDSKEGIVVESNHDSHMAKERAHSTASHSSSNSEDTEM	failed
MTSTVEFINRWQRIALLSQSLLELAQRGEWDLLLQQEVSYLQRIETVMEKQTPPGITRSIQDMVAGYIKQTLDNEQLLKGLLQQRLDELSSLIGQSTRQKSLNNAYGRLSGMLLVPDASGAS	failed
MTSYIILKHLHMTTAYLTITLFALRLLLDAVGRPGWRQTPLRFIPHINDTILLVAAIALVFVAGYASAMPGWLITKIVLLFGYIIAGVFALKTTVGKPARIVAAVLALVQVSAIFHLAMAKPF	failed
MTTAKRDTYTPETLLSVAVQVFIERGYDGTSMEHLSKAAGISKSSIYHHVTGKEELLRRAVSRALDELFGILDEEHARVGTAAERLEYVVRRMVEVLMAELPYVTLLLRVRGNTGTERWALERRREFDHRVAALLKDAAAEGDVRADVEVRLATRLVFGMINSIVEWYRPEGPDGRSDASGASGVSGAGEREVVDAVARLVFGGLRKAS	not failed
MTTEPAQALSPLGVLPPAGPTCVHLPLNVTPQELARYAVGLANARGGTVMVGVDVVGQEHAERDAGELHPLMITHAIFELSGGRLTVNVQHHRVPGGARVLTVFVPQAPYVLAAPDGAVMAWDGAHLVPVLPGEGEPVADRDYTAVVPPDASLADLDPAEVARLRLLGRRIDAANLPDLDFLQELGLLVPSGGALRPTLAAILLAGTDAALRAHLPQAEVCYFHHQANDVEFQFREDLRRPIPSLLLRLSELIQARNRFTPVQVGLFRVEVWDHDESVYREALLNALTHRDYTLRDVVHVHHYPDRLEIMNPGGFPGGITPGNILRHQPKRRNPLLAGVLARLGLVEQAGVGVDKMFSLMLRHGKEPPEYVNYPDAVTLTLHGSAFDSDFVRFVARKQEELPQLSLDMLIVLSLLSREGEAPRAQLARALQLPEDRTPRLLRQMEDLALITRAGIGRGIAYHLAPDVAAALGQEKQRGLSALPGLPEPAERPTLLAPPAAVAPAPAPAAPRRVSEPAPTSHAGPSPSETRAIALALARERGRVRNADLREVCGLTNQQAWRALRSLVNAGLLRRLGSGTRDAYYELGEGAGRREEG	failed
MTTFTGHLTDAQAQRLVDGTLLEAEADEVLAHAGDCAECQALTESYRVLGDALGEALGALEVPELPRDFTAGVLSRIDARERAVRRERRFAAAILAAVLVAIGVTVVVAGAGTWAPAASRLAGGLGSAGEVLRLGAGLAGTLLSALRFPLALACTALAVPLLFALSRLIPSARAELA	failed
MTTHHETYTAPPFGPALMLNAFAPSRGWNPKDGFPDFSFIWRGYQISPAALATLQRAAGRDDAATADRLILLAPHVTGFRLTMALLMCRDWPLPIWRALQLRNRLIRSGDIKLDAASDLIVRAIGWRVHDKGIELDVLAQLMQGGDCPWQSITTFYYRGRFDGPASHGADDGAPMASPPIDPSLPPMTQWTVDGGERLRWAALTGDYNPLHLVDIYARATGFAAASAHPQRIAAQCLGHLAPTPEHPTQLDLWLKGPVYFGRSASLREASNDDGTTFGLWIDGDDRPAMVGVMR	failed
MTTHQVKKSEAKRQHILDSGFHLVLRKGFVGVGLQEILKTSGVPKGSFYHYFESKEAFGCELLKHYISDYQIRLNQLWTTETSARDKLMNYLQCWVKDPATEQSWAESCLIVKMAAEVADLSEDMRLIMNDGVKRLIARMADLIRIGQQEGSIQTSVVPDVLAQVIYQMYLGAALLSKLYKHKAPLFQALESTKMMLDGCNHVQQDKNQ	not failed
MTTIPSTAEAKLEMLTTINRAIAGSRPEALPPYPVPAPLSRAEILHQFEDRILDYGAAYTHVSAAELPGAIAKALGNARRVIVPAGIPAPWLTVGMDVLRDEPPLSHAELDRADAVLTGCAVAISETGTIILDHRADQGRRALSLIPDFHICVVREDQIVQTVREGVEAVAASVREGRPLTWLSGGSATSDIELVRVEGVHGPRRLQVIVVG	not failed
